# Bridge positions count the residues as written; N and C are the ends. Ends that are not written are not given here. COCH2 = acetyl group that carries the bridge
# B1: cyclic peptide SEQ ID NO: 368 (peptide)
# peptide: QCLIQDLYAYIFK(COCH2)L
# modifications: thioether 2-13
# B2: cyclic peptide SEQ ID NO: 50 (peptide)
# peptide: ACGQNFYHPVQFHYFIAYK(COCH2)Q
# modifications: thioether 2-19 (inferred)
# B3: cyclic peptide SEQ ID NO: 365 (peptide)
# peptide: LCYLYQYLYQAK(COCH2)F
# modifications: thioether 2-12
# B4: cyclic peptide SEQ ID NO: 362 (peptide)
# peptide: LCYLYQYLYTTK(COCH2)Y
# modifications: thioether 2-12
# B5: cyclic peptide SEQ ID NO: 374 (peptide)
# peptide: QCLQDLYRYLYLLK(COCH2)A
# modifications: thioether 2-14
# B6: cyclic peptide SEQ ID NO: 361 (peptide)
# peptide: QCYYLYWYLYK(COCH2)I
# modifications: thioether 2-11
# B7: cyclic peptide SEQ ID NO: 49 (peptide)
# peptide: SCQGNWISNTQFRYFIAYK(COCH2)T
# modifications: thioether 2-19 (inferred); not fully specified (residue 1); printed as s-(C)-QGNWISNTQFRYFIAY-(K(acetyl))-T
# B8: cyclic peptide SEQ ID NO: 372 (peptide)
# peptide: QCEQLKYLYQYVLKL
# modifications: not fully specified; thioether ring (C)-(K(acetyl))
# B9: cyclic peptide SEQ ID NO: 363 (peptide)
# peptide: LCYLYQYIYTAK(COCH2)F
# modifications: thioether 2-12
# B10: cyclic peptide SEQ ID NO: 373 (peptide)
# peptide: QCYNYQYIYQYIYK(COCH2)I
# modifications: thioether 2-14
# B11: cyclic peptide SEQ ID NO: 52 (peptide)
# peptide: VCNENNWSRSQYHFFLQYK(COCH2)Y
# modifications: thioether 2-19 (inferred)
# B12: cyclic peptide SEQ ID NO: 51 (peptide)
# peptide: VCHSNFLSAVQYAYFYQYK(COCH2)H
# modifications: thioether 2-19 (inferred)
# B13: cyclic peptide SEQ ID NO: 366 (peptide)
# peptide: DCQQYYLYLYLWK(COCH2)I
# modifications: thioether 2-13
# B14: cyclic peptide SEQ ID NO: 364 (peptide)
# peptide: QCLQYLYQYLFK(COCH2)I
# modifications: thioether 2-12
# B15: cyclic peptide SEQ ID NO: 48 (peptide)
# peptide: GCYWNEVQYYYLQQYK(COCH2)Q
# modifications: thioether 2-16 (inferred)
# B16: cyclic peptide SEQ ID NO: 371 (peptide)
# peptide: DCQLWYLYQYLIVK(COCH2)A
# modifications: thioether 2-14
# B17: cyclic peptide SEQ ID NO: 367 (peptide)
# peptide: HCQLEYLYTYVLK(COCH2)I
# modifications: thioether 2-13
# B18: cyclic peptide SEQ ID NO: 375 (peptide)
# peptide: DCLQFIYQYLYTVK(COCH2)I
# modifications: thioether 2-14
# B19: cyclic peptide SEQ ID NO: 370 (peptide)
# peptide: DCQLYYLYQYVLTK(COCH2)V
# modifications: thioether 2-14
# B20: cyclic peptide SEQ ID NO: 369 (peptide)
# peptide: DCLQFLYLYLYQK(COCH2)T
# modifications: thioether 2-13
# B21: cyclic peptide SEQ ID NO: 81 (peptide)
# peptide: SCPQNFINPVQWRYFQHYK(COCH2)N
# modifications: thioether 2-19 (inferred)
# B22: cyclic peptide SEQ ID NO: 92 (peptide)
# peptide: QCPQNFINPVQWRYFQHFK(COCH2)N
# modifications: thioether 2-19
# B23: cyclic peptide SEQ ID NO: 96 (peptide)
# peptide: QCPQYFINPVQWRYFQHYK(COCH2)N
# modifications: thioether 2-19
# B24: cyclic peptide SEQ ID NO: 99 (peptide)
# peptide: QCPQEFINPVQWRYFQHYK(COCH2)N
# modifications: thioether 2-19
# B25: cyclic peptide SEQ ID NO: 84 (peptide)
# peptide: ECPQNFINPVQWRYFQHYK(COCH2)N
# modifications: thioether 2-19 (inferred)
# B26: cyclic peptide SEQ ID NO: 105 (peptide)
# peptide: QCPQNFINPVQSRYFQHYK(COCH2)N
# modifications: thioether 2-19
# B27: cyclic peptide SEQ ID NO: 101 (peptide)
# peptide: QCPQNFINPVQIRYFQHYK(COCH2)N
# modifications: thioether 2-19
# B28: cyclic peptide SEQ ID NO: 94 (peptide)
# peptide: QCPQNFINPVQWRYFQHSK(COCH2)N
# modifications: thioether 2-19
# B29: cyclic peptide SEQ ID NO: 87 (peptide)
# peptide: QCPQNFINPVHWRYFQHYK(COCH2)N
# modifications: thioether 2-19 (inferred)
# B30: cyclic peptide SEQ ID NO: 90 (peptide)
# peptide: QCPQNFINPVQWRYRQHYK(COCH2)N
# modifications: thioether 2-19 (inferred)
# B31: cyclic peptide SEQ ID NO: 82 (peptide)
# peptide: TCPQNFINPVQWRYFQHYK(COCH2)N
# modifications: thioether 2-19 (inferred)
# B32: cyclic peptide SEQ ID NO: 100 (peptide)
# peptide: QCPQHFINPVQWRYFQHYK(COCH2)N
# modifications: thioether 2-19
# B33: cyclic peptide SEQ ID NO: 104 (peptide)
# peptide: QCPQNFINPVQYRYFQHYK(COCH2)N
# modifications: thioether 2-19
# B34: cyclic peptide SEQ ID NO: 102 (peptide)
# peptide: QCPQNFINPVQVRYFQHYK(COCH2)N
# modifications: thioether 2-19
# B35: cyclic peptide SEQ ID NO: 83 (peptide)
# peptide: DCPQNFINPVQWRYFQHYK(COCH2)N
# modifications: thioether 2-19 (inferred)
# B36: cyclic peptide SEQ ID NO: 86 (peptide)
# peptide: HCPQNFINPVQWRYFQHYK(COCH2)N
# modifications: thioether 2-19 (inferred)
# B37: cyclic peptide SEQ ID NO: 98 (peptide)
# peptide: QCPQTFINPVQWRYFQHYK(COCH2)N
# modifications: thioether 2-19
# B38: cyclic peptide SEQ ID NO: 85 (peptide)
# peptide: RCPQNFINPVQWRYFQHYK(COCH2)N
# modifications: thioether 2-19 (inferred)
# B39: cyclic peptide SEQ ID NO: 399 (peptide)
# peptide: QK(COCH2)PQNFINPVQWRYFQHYCN
# modifications: thioether 2-19
# B40: cyclic peptide SEQ ID NO: 88 (peptide)
# peptide: QCPQNFINPVQWRYLQHYK(COCH2)N
# modifications: thioether 2-19 (inferred)
# B41: cyclic peptide SEQ ID NO: 106 (peptide)
# peptide: QCPQNFINPVQHRYFQHYK(COCH2)N
# modifications: thioether 2-19
# B42: cyclic peptide SEQ ID NO: 93 (peptide)
# peptide: QCPQNFINPVQWRYFQHWK(COCH2)N
# modifications: thioether 2-19
# B43: cyclic peptide SEQ ID NO: 97 (peptide)
# peptide: QCPQSFINPVQWRYFQHYK(COCH2)N
# modifications: thioether 2-19
# B44: cyclic peptide SEQ ID NO: 103 (peptide)
# peptide: QCPQNFINPVQFRYFQHYK(COCH2)N
# modifications: thioether 2-19
# B45: cyclic peptide SEQ ID NO: 91 (peptide)
# peptide: QCPQNFINPVQWRYFQHVK(COCH2)N
# modifications: thioether 2-19
# B46: cyclic peptide SEQ ID NO: 95 (peptide)
# peptide: QCPQGFINPVQWRYFQHYK(COCH2)N
# modifications: thioether 2-19
# B47: cyclic peptide SEQ ID NO: 89 (peptide)
# peptide: QCPQNFINPVQWRYYQHYK(COCH2)N
# modifications: thioether 2-19 (inferred)
# Molecular target: T1, Recombinant Human FGFR2 alpha (IIIc) Fc Chimera Protein, CF (R&D systems, 712-FR-050) (human, UniProt P21802 22-377)
# T1 construct: bought; not shown: Fc part of the chimera
# Experiment: ELISA on plate-bound FGFR2-Fc
# Summary of the method: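 Peptide binding scored by category from dose-response of background-corrected luminescence (FGFR-coated minus uncoated wells). Detection via anti-Myc antibody (2 h, room temperature) after 3 h peptide incubation on wells coated with 5 ng FGFR2 alpha (IIIc)-Fc.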
# T1 sequence (P21802 22-377, change not shown): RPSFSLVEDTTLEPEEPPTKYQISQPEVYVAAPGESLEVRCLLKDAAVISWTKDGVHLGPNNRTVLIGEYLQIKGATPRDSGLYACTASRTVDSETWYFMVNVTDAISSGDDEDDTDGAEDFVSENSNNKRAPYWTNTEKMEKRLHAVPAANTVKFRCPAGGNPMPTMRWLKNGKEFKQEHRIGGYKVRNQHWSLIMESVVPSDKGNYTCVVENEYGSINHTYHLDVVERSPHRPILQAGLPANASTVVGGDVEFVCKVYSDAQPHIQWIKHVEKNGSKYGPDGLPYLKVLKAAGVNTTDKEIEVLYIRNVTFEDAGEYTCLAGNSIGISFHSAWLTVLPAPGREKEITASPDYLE
row,Binder,"ELISA luminescence signal at 10 nmol/L peptide, relative to SEQ ID NO: 47 (=1)"
1,B1,0.1 to 0.5 ratio
2,B2,≥ 0.7 ratio
3,B3,0.1 to 0.5 ratio
4,B4,0.1 to 0.5 ratio
5,B5,0.1 to 0.5 ratio
6,B6,0.1 to 0.5 ratio
7,B7,≥ 0.7 ratio
8,B8,0.1 to 0.5 ratio
9,B9,0.1 to 0.5 ratio
10,B10,0.1 to 0.5 ratio
11,B11,0.1 to 0.5 ratio
12,B12,≥ 0.7 ratio
13,B13,0.1 to 0.5 ratio
14,B14,0.1 to 0.5 ratio
15,B15,≥ 0.7 ratio
16,B16,0.1 to 0.5 ratio
17,B17,0.1 to 0.5 ratio
18,B18,0.1 to 0.5 ratio
19,B19,0.1 to 0.5 ratio
20,B20,0.1 to 0.5 ratio
21,B21,≥ 0.7 ratio
22,B22,≥ 0.7 ratio
23,B23,0.1 to 0.5 ratio
24,B24,0.1 to 0.5 ratio

row,Binder,"ELISA luminescence signal at 10 nmol/L peptide, relative to SEQ ID NO: 47 (=1)"
1,B25,≥ 0.7 ratio
2,B26,0.1 to 0.5 ratio
3,B27,0.1 to 0.5 ratio
4,B28,0.1 to 0.5 ratio
5,B29,≥ 0.7 ratio
6,B30,0.1 to 0.5 ratio
7,B31,≥ 0.7 ratio
8,B32,0.1 to 0.5 ratio
9,B33,0.5 to 0.7 ratio
10,B34,0.1 to 0.5 ratio
11,B35,≥ 0.7 ratio
12,B36,≥ 0.7 ratio
13,B37,0.1 to 0.5 ratio
14,B38,≥ 0.7 ratio
15,B39,0.1 to 0.5 ratio
16,B40,≥ 0.7 ratio
17,B41,≥ 0.7 ratio
18,B42,≥ 0.7 ratio
19,B43,0.1 to 0.5 ratio
20,B44,0.5 to 0.7 ratio
21,B45,0.1 to 0.5 ratio
22,B46,0.1 to 0.5 ratio
23,B47,0.5 to 0.7 ratio

# From US20260008815A1, “CYCLIC PEPTIDE OR SALT THEREOF, AND USES THEREOF” (FUJIFILM Corporation, priority 2023, published 2026)
